From patent publication US20230064978A1, “CYCLIC PEPTIDE RECEPTOR LANTHIONINE SYNTHETASE C-LIKE PROTEIN (LANCL) AND USES THEREOF” (LATERAL IP PTY LTD, priority 2019, published 2023)
“Also recorded” adds a separate entry of the source. Bridges are numbered along the chain shown (N, C = ends). Where no end group is shown, it is not given here.

Experiments:
DRG neurons = assay: Confocal microscopy of PAL probe binding in DRG cell cultures, spinal nerve ligation model; type: cell-based, Sprague Dawley rats; conditions: specificity control; excess unlabeled competitor
Description: LAT9991-PAL was used in conjunction with confocal microscopy to visualise the location of potential target(s), noting that analgesic agents can have activity at several sites, either on central or peripheral neurons, or on glial or inflammatory cells that are in proximity to neurons. To identify the cell types to which LAT9991-PAL binds, 3-day cell cultures of DRG from neuropathic or control sites were taken from animals with neuropathy due to spinal nerve ligation. Briefly, L5 and L6 spinal nerves of male Sprague Dawley rats were ligated to create a robust and long-lasting mechanical allodynia of the injured hind paw. Presence of neuropathic pain was confirmed 2 weeks post-spinal nerve ligation surgeries (day 14) using von Frey (VF) filaments (up-and-down method) applied on ipsilateral (injured) and contralateral (non-injured) paw). Live DRG cells were dissected out as described previously and incubated with LAT9991-PAL for 1 hour prior to UV irradiation to fix the binding in situ. […] As a specificity control, the binding of LAT9991-PAL to the neuropathic DRG was blocked in the presence of an excess amount of unlabeled LAT9991 peptide.

human recombinant LANCL1 = target: T1, human recombinant LANCL1 (Homo sapiens, UniProt O43813); assay: In-gel fluorescence: photolabelling of recombinant LANCL1 with PAL probes, with or without excess competitor; type: binding
T1 construct: purchased ABCAM ab181923; host or cells: E. coli
Experimental: The in-gel fluorescence protocol can be briefly described as follows:
1. LANCL1 Labelling, Assay on 96 Well Plate, Volume of the Reaction 40 μl in PBS
3 μg/well of human recombinant LANCL1 (ABCAM catalog no. ab181923, 1 mg/ml; expressed in E. Coli and incorporating an N-terminal 23 amino acid hexaHis tag; UniProtKB/Swiss-Prot Accession no: O43813);
• Vehicle DMSO • ±LAT8881 (a cyclic peptide fragment of human growth hormone; SEQ ID NO:1) • SEQ ID NO:1) as competitor @ 25, 50, 100 or 200 μM, pre-incubation 10 min, 4 μl of a stock solution 10-fold concentrated • ±LAT9991-PAL, LAT7771-PAL or LAT9993-PAL probes @ 1 μM, incubation 30 min at room temperature on a plate agitator (protected from light), 4 μl of a stock solution @10 μM
• Irradiation @ 365 nm 20 min (4° C., on a support containing ice) Transfer 40 μl in a clean Eppendorf tube
• Reduction: DTT 10 mM, 30 min @ 56° C. • Alkylation: Iodoacetamide 30 mM, 45 min @ RT Click-iT AzideTamra of 60 μL samples
• Acetone Precipitation −20° C. ON • Dry pellet resuspended in 30 μL 1% SDS in 50 mM Tris-HCl pH 7.5 • Photolabeled LANCL1 was tagged with tetramethylrhodamine (TAMRA) azide @100 μM TAMRA azide by copper click chemistry using the Click-iT Protein Reaction Buffer Kit (ThermoFisher Scientific) during 30 minutes • Precipitation using the chloroform-methanol method, pellet was air-dried for 10 min at room temperature, resuspended in 30 μL SDS loading buffer (Bio Rad's XT Sample Buffer containing 2.5% v/v 2-mercaptoethanol) and heated (60° C., 30 min)
(§1) • SDS-PAGE (4-15% Criterion™ TGX Stain-Free™ Protein Gel, Bio Rad) • Analyzed by in-gel fluorescence scanning using a ChemiDoc™ MP Imaging System (Bio Rad) with a green LED light as an excitation source and a BP600/20 nm emission filter

human recombinant LANCL2 = target: T2, human recombinant LANCL2 (Homo sapiens, UniProt Q9NS86); assay: In-gel fluorescence: photolabelling of recombinant LANCL2 with PAL probe, with or without excess LAT8881; type: binding; conditions: in-gel fluorescence after UV cross-linking
T2 construct: human recombinant LANCL2 (amino acid residues 1-450); GST (N); purchased ABCAM ab163277; host or cells: wheat germ
T2 sequence (Q9NS86 1-450): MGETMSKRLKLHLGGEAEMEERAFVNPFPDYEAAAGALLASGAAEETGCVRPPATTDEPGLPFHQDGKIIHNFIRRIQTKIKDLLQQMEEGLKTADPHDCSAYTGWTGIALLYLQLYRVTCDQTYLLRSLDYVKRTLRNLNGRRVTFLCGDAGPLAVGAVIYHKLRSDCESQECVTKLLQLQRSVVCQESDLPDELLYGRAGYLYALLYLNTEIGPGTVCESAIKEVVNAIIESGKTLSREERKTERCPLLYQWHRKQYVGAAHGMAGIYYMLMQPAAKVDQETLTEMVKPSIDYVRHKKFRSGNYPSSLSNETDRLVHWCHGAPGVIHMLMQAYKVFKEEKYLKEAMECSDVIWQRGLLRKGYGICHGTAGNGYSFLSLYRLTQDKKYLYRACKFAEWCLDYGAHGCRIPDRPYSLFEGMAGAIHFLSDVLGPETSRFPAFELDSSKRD
Experimental: (§2) An in-gel fluorescence protocol was followed to determine whether the cyclic peptides bound to LANCL2 and LANCL3. Briefly:
(§3) 1. LANCL2 and LANCL3 Labelling, Assay on 96 Well Plate, Volume of the Reaction 40 μl in PBS
• 1 μg/well of human recombinant LANCL2 (amino acid residues 1-450; ABCAM catalog no. ab163277, ˜0.07 mg/ml; expressed in wheat germ and incorporating an N-terminal GST tag; UniProt Accession no: Q9NS86);
• Vehicle DMSO • ±LAT8881 (a cyclic peptide fragment of human growth hormone; SEQ ID NO:1) • SEQ ID NO:1 as competitor @ 50, 100 or 200 μM, pre-incubation 10 min, 4 μl of a stock solution 10-fold concentrated • ±LAT9991-PAL probes @ 1 μM, incubation 30 min at room temperature on a plate agitator (protected from light), 4 μl of a stock solution @10 μM
(§4) • Irradiation @ 365 nm 20 min (4° C., on a support containing ice) • Transfer 40 μl in a clean Eppendorf tube
(§5) • Reduction: DTT 10 mM, 30 min @ 56° C. • Alkylation: Iodoacétamide 30 mM, 45 min @ RT Click-iT AzideTamra of 60 μL samples
(§6) • Acetone Precipitation −20° C. ON • Dry pellet resuspended in 30 μL 1% SDS in 50 mM Tris-HCl pH 7.5 • Photolabeled LANCL1 was tagged with tetramethylrhodamine (TAMRA) azide @100 μM TAMRA azide by copper click chemistry using the Click-iT Protein Reaction Buffer Kit (ThermoFisher Scientific) for 30 minutes • Precipitation using the chloroform-methanol method, pellet was air-dried for 10 min at room temperature, resuspended in 30 μL SDS loading buffer (Bio Rad XT Sample Buffer containing 2.5% v/v 2-mercaptoethanol) and heated (60° C., 30 min)
as §1

LANCL1 = LANCL1 (Rattus norvegicus, UniProt Q9QX69); assay: Mass spectrometry of excised gel bands from PAL cross-linked homogenates (PALMS); type: binding; set-up: from tissue; host or cells: nerve tissue homogenate of neuropathic animals; conditions: vs un-crosslinked samples (CU) and samples with excess LAT8881 (COMP); 37 kDa band
Description: Having identified at least three molecular weight bands as representative of the potential targets, the 12-15 kD, 37 kD and 50 kD regions of the gel were excised, subjected to limited proteolysis and analysed by mass spectrometry to identify peptides from proteins that were differentially enriched. The detection of at least two different peptides from a protein that is enriched in the LAT9991-PAL cross-linked samples when compared to (i) the un-crosslinked samples and (ii) LAT9991-PAL in the presence of excess LAT8881 (SEQ ID NO:1; YLRIVQCRSVEGSCGF) was considered a positive signature. LAT9991-PAL, LAT9993-PAL and LAT7771-PAL were also used. LAT9993 (SEQ ID NO:41) has the amino acid sequence SCRSRPVESSC.

[1] = tested on: tissue homogenates of nerve from neuropathic animals; assay: PAL cross-linking to nerve tissue homogenates and gel separation; type: binding
Description: Using a ligand driven approach, the present inventors utilized the photo-activatable cross-linking PAL from Evotec A.G. (Photo-Activated Labelling) technology that derivatizes the active cyclic peptides to allow UV-induced cross-linking to binding targets (described herein as peptide/SEQ ID NO:X-PAL). This allows subsequent detection in cells, gels of tissue isolates or in pull-down of the peptide/target complex for sequencing by mass spectroscopy (PALMS).
LAT9991-PAL was cross-linked to tissue homogenates of nerve from neuropathic animals.

human recombinant LANCL3 = target: T3, human recombinant LANCL3 (Homo sapiens, UniProt Q6ZV70); assay: In-gel fluorescence: photolabelling of recombinant LANCL3 with PAL probe, with or without excess LAT8881; type: binding; conditions: in-gel fluorescence after UV cross-linking
T3 construct: human recombinant LANCL3 (amino acid residues 1-420); 10xHis (N); Myc (C); purchased ABCAM ab163277; host or cells: E. coli
Experimental: as §2, §3
• […] of human recombinant LANCL3 (amino acid residues 1-420; ABCAM catalog no. ab163277, ˜0.07 mg/ml; expressed in E. Coli and incorporating an N-terminal 10×His tag and a C-terminal Mvc tag; UniProt Accession no: Q6ZV70);
• Vehicle DMSO • ±LAT8881 (a cyclic peptide fragment of human growth hormone; SEQ ID NO:1) • SEQ ID NO:1 as competitor @ 50, 100 or 200 μM, pre-incubation 10 min, […], incubation 30 min at room temperature on a plate agitator (protected from light), 4 μl of a stock solution @10 μM
as §4, §5, §6, §1

Chain of LANCL1 (Q9QX69 whole entry): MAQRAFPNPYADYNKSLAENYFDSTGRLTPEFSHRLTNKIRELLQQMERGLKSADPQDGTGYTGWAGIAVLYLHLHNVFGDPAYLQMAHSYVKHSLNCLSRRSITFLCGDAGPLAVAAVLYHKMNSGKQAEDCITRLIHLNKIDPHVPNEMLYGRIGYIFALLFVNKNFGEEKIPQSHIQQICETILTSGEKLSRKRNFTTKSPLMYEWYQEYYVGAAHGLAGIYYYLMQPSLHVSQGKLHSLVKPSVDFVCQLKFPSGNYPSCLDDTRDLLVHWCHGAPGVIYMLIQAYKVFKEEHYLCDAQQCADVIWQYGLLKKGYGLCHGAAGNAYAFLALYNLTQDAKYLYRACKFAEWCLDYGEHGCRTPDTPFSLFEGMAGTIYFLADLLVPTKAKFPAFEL
T1 sequence (O43813 with tags, fused parts or gaps): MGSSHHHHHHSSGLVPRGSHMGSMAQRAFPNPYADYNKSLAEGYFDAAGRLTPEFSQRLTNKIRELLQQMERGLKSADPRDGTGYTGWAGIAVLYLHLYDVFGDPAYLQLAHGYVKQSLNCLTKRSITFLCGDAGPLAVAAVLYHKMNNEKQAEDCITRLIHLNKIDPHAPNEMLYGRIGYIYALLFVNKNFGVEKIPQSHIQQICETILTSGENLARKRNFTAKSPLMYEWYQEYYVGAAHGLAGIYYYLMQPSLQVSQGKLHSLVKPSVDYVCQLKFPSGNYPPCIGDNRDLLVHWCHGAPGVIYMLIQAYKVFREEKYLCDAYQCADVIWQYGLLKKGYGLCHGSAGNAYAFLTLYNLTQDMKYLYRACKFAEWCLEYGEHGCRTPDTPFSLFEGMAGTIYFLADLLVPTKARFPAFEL
T3 sequence (Q6ZV70 whole entry, the tested form may be a part): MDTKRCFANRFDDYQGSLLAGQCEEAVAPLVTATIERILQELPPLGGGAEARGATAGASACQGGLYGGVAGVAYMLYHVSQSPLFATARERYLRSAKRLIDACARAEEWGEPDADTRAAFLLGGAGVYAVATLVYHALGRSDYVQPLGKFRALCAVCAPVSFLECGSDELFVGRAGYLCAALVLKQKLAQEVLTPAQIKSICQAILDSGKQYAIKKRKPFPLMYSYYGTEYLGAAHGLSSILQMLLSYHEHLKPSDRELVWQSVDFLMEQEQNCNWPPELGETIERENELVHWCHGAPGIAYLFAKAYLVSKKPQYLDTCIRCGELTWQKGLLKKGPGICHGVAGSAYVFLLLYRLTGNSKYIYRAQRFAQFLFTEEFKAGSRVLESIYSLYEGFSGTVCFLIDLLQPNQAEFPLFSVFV

CRSVEGSCG (disulfide 1-8 (inferred)) [LAT9991]
Block of LAT9991-PAL binding to neuropathic DRG by excess unlabeled peptide (DRG neurons): blocked
Inhibition of LAT9991-PAL binding to recombinant LANCL1 by excess competitor (human recombinant LANCL1; probe LAT9991-PAL, excess unlabelled competitor): inhibited

LAT7771-PAL: cyclic peptide conjugate of LAT7771 (SEQ ID NO:52) with the PAL photo-activatable cross-linking group (CRIIHNNNC; disulfide 1-9 (inferred); also: ['PAL photo-activatable cross-linking group, structure and site not given here'])
Binding of PAL probe to recombinant LANCL2 (human recombinant LANCL2): bound to recombinant LANCL2
LANCL1 bound / enriched in PAL probe cross-linked samples (mass spectrometry) (LANCL1): enriched by several fold-changes; also recorded: bound to LANCL1
Binding of PAL probe to recombinant LANCL1 (human recombinant LANCL1; in-gel fluorescence after UV (365 nm) cross-linking): bound to recombinant LANCL1
Cross-linking of PAL probe to tissue homogenates of nerve from neuropathic animals [1]: shown to cross-link
Molecular weight ranges of targets stained after gel separation ([1]; PAL probe cross-linked to nerve homogenates): ˜12-15 kD, ˜37 kD and ˜50 kD

LAT9993-PAL: cyclic peptide conjugate of LAT9993 (SEQ ID NO:41) with the PAL photo-activatable cross-linking group (SCRSRPVESSC; disulfide 2-11 (inferred); also: ['PAL photo-activatable cross-linking group, structure and site not given here'])
LANCL1 bound / enriched in PAL probe cross-linked samples (mass spectrometry) (LANCL1): enriched by several fold-changes; also recorded: bound to LANCL1
Binding of PAL probe to recombinant LANCL3 (human recombinant LANCL3): bound to recombinant LANCL3
Cross-linking of PAL probe to tissue homogenates of nerve from neuropathic animals [1]: shown to cross-link
